According to the supplement of paper PMC10567573:

B1: TRAF3IP2 (parent)
chain: FMEKRNQWLVSQLSAASPDTGHDS
B2: C6orf223 (parent)
chain: TLARMSRRTRGPVERAAAAAAAAA
B3: ZNF511 (parent)
chain: FDALDDYEHHYHTLHGNVCSFCKR
B4: FAM50A (parent)
chain: KALEILRKDFSELRSAGVEQLMYI

Variants of: B1
Assay: protein stability index of a GFP-peptide fusion (GPS, HEK-293T) (PSI 1-6); higher = more stable
Details: c terminus: a fixed tail appended
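Note: lentivirally expressed fusions sorted by FACS into six bins by GFP to DsRed ratio, PSI derived from sequencing read proportions per bin multiplied by bin number.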

Protein stability index of substitutions, site by site:
D23: P 2.21; K 1.6; S 2.69; R 2.07; F 2.22; L 1.81; I 1.65; H 2.47; V 2.71; Y 1.75; T 2.57; N 2.08; Q 2.44; G 2.11; M 2.12
S24: R 2.48; L 2.22; N 2.68; F 2.15; V 2.29; W 2; E 3.68; G 3.22; H 2.26; K 1.81; T 2.41; M 2.09; C 2.61; Y 2.04; A 2.4; Q 2.85; D 2.45; P 2.68; I 2.1

Variants of: B2
Assay: as above
Details: c terminus: a fixed tail appended

Protein stability index: each site, then its substitutions
R15: W 2.01
A18: W 2.45; I 3.43; T 3.57; L 2.92; Y 2.13; Q 2.4; N 3.25; S 2.48; M 1.56; P 4.09
A22: K 1.97; Y 2.66; W 2.68; I 2.23; T 3.2; L 2.4; F 2.37; N 3.38; C 3.33
L2: E 4.7
A21: W 2.83; V 2.18; M 1.95
A16: S 3.8
A24: H 4.49; P 2.23; F 2.35
A17: T 3.76; R 3.5; Y 4.15; F 1.63
A23: L 3.09; I 3.49; T 4.46; Y 3.26; W 2.18; C 3.99
A19: K 3.43
R4: I 1.94
P12: W 2.27

Variants of: B3
Assay: as above
Details: c terminus: a fixed tail appended

Protein stability index, by site and new letter:
D2: P 3.11; W 2.3; L 3.18; I 3.62; T 3.18; R 3.19; M 3.01; K 3.78; H 2.17; C 3.17; Q 2.93; N 3.06; V 2.06; E 4.27; Y 3.1; A 3.4; S 3.51; F 2.48; G 4.03
A3: V 3.59; W 2.87; L 3.69; M 3.56; I 3.31; D 3.72; F 3.19; T 3.56; G 3.96; Y 3.54; E 4.08; P 3.7; C 4.06; N 3.63; H 3.63; S 3.77; Q 4.04; K 2.87; R 3.81
D5: A 4.03
L4: R 3.93; T 4.44; H 4.48; F 4; P 3.54; C 3.94; I 3.56; M 3.81; G 4.11; W 3.43; A 4.1; K 4.39; V 3.75; E 4.41; N 4.51; S 4.6; D 4.2; Y 3.16; Q 4.18
F1: D 4.31; T 4.28; V 4.22; P 4.04; H 4.46; L 4.31; C 4.38; A 4.38; M 4.59; N 4.75; K 4.28; W 3.7; S 4.51; E 4.64; R 5.08; I 3.43; G 3.74; Y 3.59; Q 4.11

Variants of: B4
Assay: as above
Details: c terminus: a fixed tail appended

Protein stability index, by site and new letter:
V18: K 2.61; L 3.85; S 1.28; Y 2.02; G 2.52; F 4.7; I 3.33; E 2.9; N 2.35
S15: A 3.13; F 2.51; D 1.14; H 4.69; R 2.64
Q20: Y 2.58
